The results in this text go back to patent US20260092121A1 (TALEM THERAPEUTICS, published 2026).

One may read the koff as the rate constant with which the complex falls apart. For orientation: EC50 means the concentration needed to bring the measured effect to its halfway point. Low readings indicate an effect from little substance, high ones a need for much substance.

For one assay, the target named is human TrkA-His (human, UniProt P04629 33-417, limits assumed). The assay can be described thus: ELISA. For orientation: ELISA stands for enzyme-linked immunosorbent assay.
Sequence of human TrkA-His (P04629 33-417 limits assumed): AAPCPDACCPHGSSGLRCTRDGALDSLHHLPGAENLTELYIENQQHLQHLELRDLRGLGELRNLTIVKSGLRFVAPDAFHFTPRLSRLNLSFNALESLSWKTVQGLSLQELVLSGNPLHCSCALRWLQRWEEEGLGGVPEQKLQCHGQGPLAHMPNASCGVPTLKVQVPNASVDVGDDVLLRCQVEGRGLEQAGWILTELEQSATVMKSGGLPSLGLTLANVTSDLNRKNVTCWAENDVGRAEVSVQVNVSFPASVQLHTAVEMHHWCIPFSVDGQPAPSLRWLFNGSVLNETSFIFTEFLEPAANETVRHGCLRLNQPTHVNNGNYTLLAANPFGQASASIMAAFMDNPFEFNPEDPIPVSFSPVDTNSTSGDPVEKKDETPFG
In the next assay the target is human TrkC-His (human, UniProt Q16288 32-429). As to the kind of experiment: ELISA.
A further assay addresses T1, mouse TrkB-ECD-GST (mouse, UniProt P15209 32-429).
T1 construct: extracellular domain; in-house fusion, HEK293; also called mTrkB-ECD-GST; mTrkB (ELISA); not shown: glutathione S-transferase (GST) fusion part
As to the kind of experiment: ELISA.

The target of assay [1] is TrkB in PathHunter eXpress TrkB Functional Assay cells (modified U2OS). The assay can be described thus: cell-based or functional assay.
The target in another assay is T2, human TrkB-His (human, UniProt Q16620 32-430).
T2 construct: in-house fusion of the TrkB ECD with poly-His, HEK293; also called huTrkB-His; hTrkB-His; not shown: poly-His tag
As to the kind of experiment: BLI off-rate, mAb captured.

Assay [2] addresses T3, biotinylated His-Avi-tagged human CD3δ/ε heterodimer (human, UniProt P07766 23-126; P04234 22-105, biotinylated).
T3 construct: bought, expressed from HEK293; also called CD30/8; Biotin-CD3
The assay can be described thus: ELISA.

T3 sequence (P07766 23-126, stated change not applied, chain 1 of 2): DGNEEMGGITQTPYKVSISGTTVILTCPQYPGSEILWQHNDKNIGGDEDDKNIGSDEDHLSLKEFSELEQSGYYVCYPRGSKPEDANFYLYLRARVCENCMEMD
T3 sequence (P04234 22-105, stated change not applied, chain 2 of 2): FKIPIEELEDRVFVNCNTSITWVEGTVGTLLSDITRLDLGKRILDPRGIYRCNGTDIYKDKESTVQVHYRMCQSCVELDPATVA

B1: anti-TrkB clone 3C02 (antibody, V domains shown)
VH: QVQLVQSGAEVKKPGESLKISCKGSGYSFTSYWIGWVRQMPGKGLEWMGIIYPGDSDTRYSPSFQGQVTISADKSISTAYLQWSSLKASDTAMYYCARGGPPDYWGQGTLVTVSS
VL: not shown
notes: full-length IgG
In the case of B1, the binding result in the assay with human TrkA-His was “no binding (tested: up to 10 µg/mL)”; in the assay with human TrkC-His, “no binding (tested: up to 10 µg/mL)”; in the assay with mouse TrkB-ECD-GST, “binds”. Also, the “TrkB activation (EC50)” value in assay [1] was 0.15 µg/mL. This molecule also registered a koff with human TrkB-His of 0.00494 s⁻¹.

B2: anti-TrkB clone 1E07 (antibody, V domains shown)
VH: QVQLVQSGAEVKKPGESLRISCKGSGYSFTNNWINWVRQMPGKGLEWMGRIDPDDSYTNYSPSFQGHVIFSADKSSNTVYLQWSSLEASDTAMYYCARRAQGGGGYDYWGQGTLVTVSS
VL: QSVLTQPPSVSGAPGQRVTISCTGSSSNIGAGFNVHWYQQVAGLAPKLLIHDNINRPSGVPDRFSGSKSGASASLTITGLQAEDEADYYCQSYDSSLSGWFAFGTGTKVTVL
notes: full-length IgG
Turning to B2, the figures for the binding result with human TrkA-His, with human TrkC-His and with mouse TrkB-ECD-GST were “no binding (tested: up to 10 µg/mL)”, “no binding (tested: up to 10 µg/mL)” and “binds”, respectively. In addition, the “TrkB activation (EC50)” value in assay [1] came to 0.13 µg/mL. Also, the koff with human TrkB-His was found to be 0.00613 s⁻¹.

B3: anti-TrkB clone 5C07 (antibody, V domains shown)
VH: QVQLVQSGAEVKKPGESLKISCKGFGYSFTNYWIGWVRQMPGKGLEWMGIIYPGDSDTRYSPSFQGQVTISADKSITTAYLQWSSLKASDTAMYYCASHTKDGTWDIWGQGTMVTVSS
VL: QAGLTQPPSVSVSPGQTASITCSGERLGDKYVSWYQQKPGQSPVLVIYQDDKRPSGVPERFSGSNSGNTATLNISGTQPMDEADYYCQAWDSSTSLYVFGTGTKLTVL
notes: full-length IgG
In the case of B3, the binding result is on record as “no binding (tested: up to 10 µg/mL)” with human TrkA-His, “no binding (tested: up to 10 µg/mL)” in the assay with human TrkC-His and “binds” with mouse TrkB-ECD-GST. For the same molecule, the “TrkB activation (EC50)” value in assay [1] was determined as 0.47 µg/mL. In the assay with human TrkB-His, this molecule showed a koff of 0.00457 s⁻¹.

B4: anti-TrkB clone 3H11 (antibody, V domains shown)
VH: QVQLQQSGPGLVKPSQTLSLTCAISGDSVSSNSAVWNWIRQSPSRGLEWLGRTYYRSKWYTDFAVSVKSRITINPDTSKNQFSLQLNSVTPEDTAVYYCARGRNGMDVWGQGTMVTVST
VL: LPVLTQPPSASGTPGQRVTISCSGSSSNIGHKYVYWYQQLPGAAPKLLIYRNNQRPSGVPDRFSASKSGTSASLAISGLRSEDEADYYCATWDDSLNGVVFGGGTKVTVL
notes: full-length IgG
Regarding B4, the binding result in the assay with human TrkA-His is given as “no binding (tested: up to 10 µg/mL)”; in the assay with human TrkC-His, “no binding (tested: up to 10 µg/mL)”; with mouse TrkB-ECD-GST, “binds”. Also, in assay [1], the “TrkB activation (EC50)” value was found to be 0.02 µg/mL. For the same molecule, in the assay with human TrkB-His, the koff was 0.0057 s⁻¹.

B5: anti-TrkB clone 4F03 (antibody, V domains shown)
VH: EVQLVQSGAEVKKPGESLKISCKGSGYSFTSYWIGWVRQMPGKGLEWMGIIYPGDSDTRYSPSFQGQVTISADKSISTAYLQWSSLKASDTAMYYCASWGMDVWGQGTLVTVSS
VL: QPVLTQPPSASGTPGQRVTISCSGSSSNIGTHTVNWYQQFPGTAPKLLMYSTFQRPSGVPDRFSGSKSGTSASLAISGLQSEDEADYYCAAWDDSLNGPVFGGGTQLTVL
notes: full-length IgG
With B5, the binding result with human TrkA-His and with human TrkC-His was “no binding (tested: up to 10 µg/mL)” in each case. Also, the “TrkB activation (EC50)” value in assay [1] was 0.041 µg/mL. In addition, the koff with human TrkB-His amounted to 0.00639 s⁻¹.

B6: anti-TrkB clone 3A06 (antibody, V domains shown)
VH: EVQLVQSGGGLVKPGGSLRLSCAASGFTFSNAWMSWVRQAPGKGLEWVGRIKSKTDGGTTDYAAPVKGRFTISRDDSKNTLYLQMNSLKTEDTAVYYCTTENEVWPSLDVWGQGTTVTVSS
VL: QSVLTQPPSVSVSPGQTASITCSGDKLGNKYASWYRQKPGQSPVLVIYQDTKRPSGIPERFSGSNSGNTATLTISGTQAMDEGDYYCQAWDSSTAVVFGGGTKLTVL
notes: full-length IgG
In the case of B6, the binding result with human TrkA-His is “no binding (tested: up to 10 µg/mL)”; with human TrkC-His it was “no binding (tested: up to 10 µg/mL)”; with mouse TrkB-ECD-GST, “binds”. For the same molecule, the “TrkB activation (EC50)” value in assay [1] was 0.15 µg/mL. In the assay with human TrkB-His, this molecule came in with a koff of 0.00453 s⁻¹.

B7: anti-TrkB clone 3B09 (antibody, V domains shown)
VH: EVQLVQSGAEVKKPGESLKISCKGSGYSFTSYWIGWVRQMPGKGLEWMGIIYPGDSDTRYSPSFQGQVTISADKSISTAYLQWSSLKASDTAMYYCATPMEDGMDVWGQGTTVTVSS
VL: QAGLTQPPSVSVSPGQTVTITCSADNLGDKYTSWYQQRPGQSPVLVIYQDTKRPSGIPARFSGSNSGNTATLTISGTQAMDEADYYCQAWDSSTGVFGTGTKVTVL
notes: full-length IgG
On to B7, for which the binding result with human TrkA-His is “no binding (tested: up to 10 µg/mL)”; with human TrkC-His, “no binding (tested: up to 10 µg/mL)”; in the assay with mouse TrkB-ECD-GST it was “binds”. Further, in assay [1], the “TrkB activation (EC50)” value is 0.094 µg/mL. The molecule further had a koff with human TrkB-His of 0.00472 s⁻¹.

B8: anti-CD3 Fab clone 7-B02 (Fab, V domains shown)
VH: QVQLVQSGGGLVQPGGSLRLSCAASGFTFSRYSMSWVRQAPGKGLEWVSSISGGGGSTYYADSVKGRFTISRDNSDGSVYLKMNSLAAGDTAAYYCVRGGWYRTPFEFWGRGTLVTVSS
VL: SYVLTQPPSVSASPGQTASITCSGHKLGDKYTSWYQQKPGQSPVLVIYQDNKRPSGIPERFSGSNSGNTATLTISGTQAMDEADYYCQAWDSSTNYVFGTGTKLTVL
notes: Fab, HEK293
Consider B8, for which, in assay [2], the EC50 was determined as 12.1 µg/mL.

B9: anti-TrkB clone 3F06 (antibody, V domains shown)
VH: QMQLVQSGAEVKKPGESLKISCKGSGYSFSTNWIGWVRQMPGKGLEWMGIIYPGDSDTRYSPSFQGQVTISADKSISTAYLQWSSLKASDTAMYYCARFYDSSGNDYWGQGTLVTVSS
VL: QSVLTQPPSVSVSPGQTASITCSGDKLGDKYASWYQQKPGQSPVLVIFQDNKRPSGIPERFSGSNSGNTATLTISGTQAMDEADYYCQTWDSSTAIFGGGTKLTVL
notes: full-length IgG
B9: the binding result was “no binding (tested: up to 10 µg/mL)” in the assay with human TrkA-His, “no binding (tested: up to 10 µg/mL)” with human TrkC-His and “binds” with mouse TrkB-ECD-GST. Also, in assay [1], the “TrkB activation (EC50)” value worked out at 0.14 µg/mL. This molecule also yielded a koff in the assay with human TrkB-His of 0.00479 s⁻¹.

B10: anti-TrkB clone 3F09 (antibody, V domains shown)
VH: EVQLVQSGAEVKKPGESLKISCKGSGYSFTSYWIGWVRQMPGKGLEWMGIIYPGDSDTRYSPSFQGQVTISADKSISTAYLQWSSLKASDTAMYYCVVRPAAAGTRIDYWGQGTLVTVSS
VL: QSVLTQPPSVSVSPGQTASITCSGDKLGDKYASWYQQKPGQSPVLIIYQDNKRPSGIPERFSGSNSGNTATLTISGTQAMDEADYYCQAWDSSTYVFGTGTKLTVL
notes: full-length IgG
Consider B10, for which the binding result with human TrkA-His and with human TrkC-His was “no binding (tested: up to 10 µg/mL)” throughout. For the same molecule, the “TrkB activation (EC50)” value in assay [1] came out at 0.053 µg/mL. In addition, in the assay with human TrkB-His, the koff came out at 0.00631 s⁻¹.

B11: anti-TrkB clone 3E04 (antibody, V domains shown)
VH: EVQLVQSGAEVKKPGESLKISCKGSGYSFTSYWIGWVRQMPGKGLEWMGIIYPGDSDTRYSPSFQGQVTISADKSISTAYLQWSSLKASDTAMYYCASRLLFGDDAFDIWGQGTMVTVSS
VL: SYVLTQPPSVSVSPGQTATITCSGDKLGDEYVSWYQQKPGQSPVLVIYQDSKRPSGIPERFSGSNSGNTATLTISGAQAVDEADYYCQAWDSNAGAFGTGTKLTVL
notes: full-length IgG
Regarding B11, the values for the binding result with human TrkA-His, with human TrkC-His and in the assay with mouse TrkB-ECD-GST were “no binding (tested: up to 10 µg/mL)”, “no binding (tested: up to 10 µg/mL)” and “binds”, respectively. Further, the “TrkB activation (EC50)” value in assay [1] is 0.11 µg/mL. Moreover, the koff with human TrkB-His was found to be 0.00534 s⁻¹.

B12: anti-TrkB clone 3A05 (antibody, V domains shown)
VH: QVQLVESGAEVKKPGESLKISCKGSGYSFTTYWIAWVRQMPGKGLEWMGIIYPGDSDTRYSPSFQGQVTISADKSISTAYLQWSSLKASDTAMYYCARLGGGMDVWGQGTMVTVSS
VL: QAGLTQPPSASGTPGQRVTISCSGSSSNIGSNTVSWYRQIPGTAPKFLLYGNNQRPSGVPARFSGSKSGTSASLAVDGLQSDDEADYYCAAWDDSLSGYVFGTGTKLTVL
notes: full-length IgG
As to B12, the values for the binding result with human TrkA-His, with human TrkC-His and with mouse TrkB-ECD-GST were “no binding (tested: up to 10 µg/mL)”, “no binding (tested: up to 10 µg/mL)” and “binds”, respectively. Besides, the “TrkB activation (EC50)” value in assay [1] worked out at 0.006 µg/mL. This molecule also returned a koff with human TrkB-His of 0.00435 s⁻¹.

B13: anti-TrkB clone 3B04 (antibody, V domains shown)
VH: QVQLVQSGAEVKKPGEPLKISCKGSGYSFPTYWIAWVRQMPGKGLEWMGIIYPGDSDTRYSPSFQGQVTISADKSISTAYLQWGSLRASDTAMYYCARGGSGLDYWGQGTLVTVSS
VL: SYELMQPPSVSVSPGQTASITCSGDKLGTKYVSWYQQKPGQSPVLVIYQDSKRPSGIPERFSGSNSGNTATLTISGTQAMDEADYYCQAWDSSTVVFGGGTKLTVL
notes: full-length IgG
With B13, the binding result with human TrkA-His is given as “no binding (tested: up to 10 µg/mL)”; with human TrkC-His, “no binding (tested: up to 10 µg/mL)”; with mouse TrkB-ECD-GST, “binds”. Also, the “TrkB activation (EC50)” value in assay [1] stood at 0.1 µg/mL. This molecule also registered a koff with human TrkB-His of 0.00802 s⁻¹.

B14: anti-TrkB clone 6F04 (antibody, V domains shown)
VH: EVQLVQSGAEVKKPGESLKISCKGSGYSFTSYWIGWVRQMPGKGLEWMGIIYPGDSDTRYSPSFQGQVTISADKSISTAYLQWSSLKASDTAMYYCARGSGGYDYWGQGTLVTVSS
VL: QSVLTQPPSVSVSPGQTASITCSGNKLGDKFVSWYHQRPGQSPVLVIYEDNKRPSGIPERFSGSNSGNTATLTISGTQAMDEGDYYCQTWDVSSYVFGTGTKVTVL
notes: full-length IgG
With B14, the results for the binding result with human TrkA-His, with human TrkC-His and in the assay with mouse TrkB-ECD-GST were “no binding (tested: up to 10 µg/mL)”, “no binding (tested: up to 10 µg/mL)” and “binds”, respectively. Further, in assay [1], the “TrkB activation (EC50)” value was 0.035 µg/mL. For the same molecule, the koff in the assay with human TrkB-His was 0.00473 s⁻¹.
